A word on the stoichiometry N: it is a count of units in the complex or per binding partner.

The values that follow come from paper PMC2779547.

The test has as its target KcsA R64C-SL (potassium ion channel KcsA, R64C mutant, spin-labelled with MTSL) (UniProt P0A334). The test can be described thus: PELDOR.

For the substance “KcsA R64C-SL (potassium ion channel KcsA, R64C mutant, spin-labelled with MTSL) (from UniProt P0A334 1-160) (natural protein)”, the stoichiometry N is 4.
